Test results taken from the DeepSol protein solubility set.

Test: soluble on expression in E. coli; label from the status in PepcDB or PDB records

Sequence	soluble on expression in E. coli
MGSDKIHHHHHHMRVLVTGANGFVGSRLAGQLGRSDHFSLACAVRTTGTCRFGEEYSIGELGPKTDWSAALRGQDVVVHLAARAHVMDDEAPDPLVEYRRVNVDGTLNLARQAIDAGVRRFVFVSSIKVNGEQTDLGQPFTSDQITAPADAYGISKLEAERGLLALGKESGMEVVIIRPPLVYGPGVKGNFATLIKLVEKGFPLPLGAISNKRTLVSLDNLVDLIQVCIDHPAAANEVFLAGDNSDLSTSELLREIGKAVGKPARLIPVPQGFLMVAARLLGKTDVARRLFGSLQVDISKARHLLGWEPPVSVEEGLRRCFELESRS	not soluble
MGSDKIHHHHHHMRYRRFGRTELAMPVFSCGGMRYQQSWKDVDWPEISVESQANLEATLARSLELGINHIETARYYGSSERQLGKALAAYPRSEIILQTKVPPSEDPAEFLETFDRSMSLLQTDYVDLLSIHGVNNAELLDWALRKGGSLDVAERLQAEGRVRHIGFSTHAPLPVILEAIASDRLSYINLHWYYIFQTNQAALEAAQKHDMGVFIISPSDKGGHLYSPPQKLVDLCEPLHPMVFNDLFCLSQPQIHTLSIGAARPSDFDRHLETLPLLDQADQVLPPILERLEAAATAALGQDWLDTWMVGLPTPDTTPGEINIPTIVWLYNLVQAFDMVKYAKARYNLLGNGGHWFPGQRAGQFDPVALSAALDQSPHRDRILQILKEMDAWLGGESVVRLSQSS	not soluble
MGSDKIHHHHHHMRYSICYTPSARDPLSLAAASWLGRNVYSDEPVEHPGLAGLGLHEIAFHTALPRRNGFHGCLKAPFALHPEVSEAQLLRELMHFAGIVEPFALPGLEVAKLGDFCGLTLTHPSNQLDRVAALVVQNFDRFRAPLSDAEIERMAPERLSAPQFANLYRWGDPHVLDEYRFYMPLTGPLPLSHRDRLHQAATHYFAPLLQNPVVFANLALFIEREPGAPLVVHSLHPMGRVSARKIA	not soluble
MGSDKIHHHHHHMSAEEQINQFKKFCAAIISFDEEEWQAMEKCLRIKFLSKDDYFLRQGKTCSRMGFVCKGYTRLFFLIDGEEHTKDFCFENTFTGSLASFLVRKPAAFNVVAMEDTYMLTIEYNALMELYKNYMCWNTFGRIVVEQFAIRKENREVTFLLNTPEKRYEEVSDQYPHLLQRAPLKMIASYLNMTPETLSRIRSKKTK	not soluble
MGSDKIHHHHHHMSARLDAQIAFLKQADRLKSVERANVLLDLSRPENSAEHSWHLALWALVLSPFAAPDVDVDRAIRMLLLHDLVEIETGDHPIHEVTDWQAVERAERAAARKLFGLLPPDQAADFHTLWTEFDADETADARYAKMLDRCQPMFQVLCADTPRPDHVEVVRENLSSGRAAYLAEAFPEAHAHARALLERHPPVTGGFGDRLEFLAEADRLKTVLRASRLMDDSRFENSAEHSWHIMLYAWVLGEYAAAPVDIDRVLRMLLLHDLVEIDAGDNPIHGNVDHAAQEALEAAAAERLFGLLPPDQGAGLRAIWQEFETAQSADALFGKAVDRVQTPIANLENGGGSWVTYDVSLQQLVARVGTPVSRGAPGLWDWLFPQLSDCFTRLGLRL	not soluble
MGSDKIHHHHHHMSASLNYKSFSKEQQTMDNLEKQLICPICLEMFTKPVVILPCQHNLCRKCASDIFQASNPYLPTRGGTTMASGGRFRCPSCRHEVVLDRHGVYGLQRNLLVENIIDIYKQESTRPEKKSDQPMCEEHEEERINIYCLNCEVPTCSLCKVFGAHKDCQVAPLTHVFQRQKSELSDGIAILVGSNDRVQGVISQLEDTCKTIEECCRKQKQELCEKFDYLYGILEERKNEMTQVITRTQEEKLEHVRALIKKYSDHLENVSKLVESGIQFMDEPEMAVFLQNAKTLLKKISEASKAFQMEKIEHGYENMNHFTVNLNREEKIIREIDFYR	not soluble
MGSDKIHHHHHHMSASMPAYMSDPTDEQLSALNMAMDHKSFKVVAYAGAGKTTTLKLIGERLRGRGLYLAFNKAIANDARAKFPSHVECRTFHSLAYRHVARDITAKLSLPRFSPKRLGDDLGLQPVQVRRQMDGVNKYITLTPARLSRFVSDAISNFCSTHASYPAPRHILFPSWLDGSDAEQLREMLYPAVEQRWLQSIDARHPAGIGHDIYLKLWALSKPSIPADFILFDEAQDADPLMMGILTQQPRQVIYVGDAHQQIYEWRGAVNAMKRLPLPQTLLTQSFRFGEPIAEIANTLLKALQEDVPLKGNPNKQSSTDKGMVHSKKDAILCRTNAAAMSQLLTGLKLGHKVALQADTDRMLKFCQAAENLKNGKSAYGVPELAYFYNWGDVQEYSETNEGSDLKTLVKLVDDHGTNVLSQAVNSLSSIENADYVISTAHKAKGLEWGKVQLDDDFYYDVTTNAVKISPEELRLLYVACTRAQSNLDIHNIKDLISGLQTGKKVVFGNS	not soluble
MGSDKIHHHHHHMSDAAIAQDLAALAAQLQTLAGLQGKRDIQAAAASLPHRPFPKLGLAAALGDDAALLPATANRLLFACEGIHPDLVAEDPWFAGWSGVLVNLSDIAAMGGRPIAVVNSLWSRDRQHADQVFAGLQFAAEKFGIPIVGGHSNLQSPYSALSVAVLGQVGPHVLSARSAQAGDRCYLLINRDGQFYRHYPFWDAATGTAPEQLRRHWELMAQLADAGLVSAAKDVSMGGLIGTAVMFAETSGAGLDLHLDRLSYPAGVSRDRWLTCFPSFGFLLAVPEACCDRFLQRVATEPDLTCDHLGSFTNTGQVRLCDRQAQVCFWDCQEQSLMGFSALTDPESPH	not soluble
MGSDKIHHHHHHMSDSHQGSCLCGAVRFRTKGALRGVVYCHCSQCRKQSGHFYAATNVADADIVIEGTESITWYEASAFAGRGFCKTCGSVLFWKPRTQDYISVMAGAFDKPTGLKGDCHIFVGDKGDYYSIDDGLPQFEKSTPSIAVAE	not soluble
MGSDKIHHHHHHMSDTLIELRNIGKRFGGVRALDGVSLAIRPGEIHCLAGENGSGKSTVIKVMSGIYTPEEGEILIDGRPVGRLDPIRAVQHGVQVIYQDFSLFGNLTVAENLALNTYVLEGRRRMDWRRARTMAVEVLARLGVDIDPDAEVGTLPTSGRQVVAIARAILAKARLIIMDEPTTALTRHEVDALFAIVRDLQAQGIAVLFVSHKMREMLEISERLTVFRNGRKVAEGPMSDFDEAAITHAMTGLSLTDDPYRPTLPPGPPLLEVRKLSVPGSVQDIDLSLRPGEIVGISGLIGSGRTELARALFGMEPAMTGTLRLEGREIHPRSVQEAIALGIAYVPEDRLTEGLFLPQSIERNLVVSILERLRRGPFLDTRAVREKTLGMFRDMQIAAPSPETAVGNLSGGNAQRVMLGRWLLTGARVLILNGPTVGVDVGSKATIHRIIRDLAQREGLGVLMISDDVPELVTNCNRIHVMHRGRFVADLDGSGMTEDRINDALKTLN	not soluble
MGSDKIHHHHHHMSDVLAYSVPAPAVVFPPMSPAPRVVPIAVQAPRKDALGCTACSMRSICMPQGLTPTELQRIEALICPSRTIKQGETIYRANDSFQSIYVVRVGSFKTVVMHRDGREQVTGFHLAGDSLGLDGVCSGHHSCDAIALEDSKMCIIPFHLLETMCREVKAVQQHVHRMMGGEIVRESSQMMLLGTMSAEQRVAT	not soluble
MGSDKIHHHHHHMSDYLRGKRVVDPVLTSVARGYKNAAFVGESIFPIVQVEKEGIVVPLFGKGAFVEYDTERAVGAESNVLLREKSSSMDLVLNEHDLAAPVDYREQAESLFNEEAKAIRRATNGVNLKRELYAARLAQDPKVYLAASKKTLAAAERWANGKGEPVTVIEAGIEAVRNATGLRPNLLTMGASVMSVLRYHPAIQAQIGANERKRITAEILQDIFQINKVLIGEPVSSPDGKKAPIDVWADNLMLHYVSPPQPGTESADENEPSFGYTFRRKGMPVSDKYPGVGGKVSYARFTDIYKVAVVGGDAGYLITNILK	not soluble
MGSDKIHHHHHHMSEAPHLTFDLDTPGVSTGHLVVPKGADCEALSLPVFSCNRGEGPSLLITGGNHGNELQGPILARRLVKWLPEAQRCGRIIIVPEINPLAVQAWTRNTPIDGKNLNRVFPGRSDGSVSERIADAISRLLLPVVDTVLDLHSFGPTWDCAPSIISHPIADIDQMTKTVSISKAFKLPVTLLWEHNETDGMFDTLVHRQGKTFICTEFGGGVVSAEALTIYEAGVRNGLIALGLVKGKAEYPTFRQQKTGQTLETTSSDQLKSPSPGIFEPRCSVMDEVEQGDVVGVLHPMGSLSAASIDIRAQSKSTVFAIRSAMYVQGNEEVAILARPLAR	not soluble
MGSDKIHHHHHHMSEATLLSYTKKLLASPPQLSSTDLHDALLVILSLLQKCDTNSDESLSIYTKVSSFLTALRVTKLDHKAEYIAEAAKAVLRHSDLVDLPLPKKDELHPEDGPVILDIVGTGGDGQNTFNVSTSAAIVASGIQGLKICKHGGKASTSNSGAGDLIGTLGCDMFKVNSSTVPKLWPDNTFMFLLAPFFHHGMGHVSKIRKFLGIPTVFNVLGPLLHPVSHVNKRILGVYSKELAPEYAKAAALVYPGSETFIVWGHVGLDEVSPIGKTTVWHIDPTSSELKLKTFQLEPSMFGLEEHELSKCASYGPKENARILKEEVLSGKYHLGDNNPIYDYILMNTAVLYCLSQGHQNWKEGIIKAEESIHSGNALRSLEHFIDSVSSL	not soluble
MGSDKIHHHHHHMSEEPRYLAVDVGGTNLKYALINRSGQMIKKSRMETPHEGLTQFLEAIEKISDKLKGQLNGVAFSTPGRVDTTTDTIYCRNSTLPYLNEVCLPRKLQKLGLPISVENDGKSAALAESWLGNLNDVKNGMAIVLGTCVGGGIMLDGHLWAGSRRLAGEVSLMPADQTNLADDGLFGKTGSAVRMIEAVNTVIGASCLTDGHCAFAAINAGQAQATQIFRQYAREVAALILNVQTVLDLDRYVIGGGISFQPILIDEINRQYDWILERRPWVKSTIARPEILSSRFHNDANLYGALYRLFNKLDAKHDVPIDLDNLLVNAGR	not soluble
MGSDKIHHHHHHMSEETTGQLPDVLWHYTTFDTLTAILTSQCLLASDFRDTNDREEILFGFKALRDAFGTHNTWNTTEGFADPVSAAIRENEERIIEDLESSFLHGQMICLSSARDSLSMWRGYGQLTNGGGNGAVAIGFCAADLQTFCGPSDATLQSSTAHIQQNASGGFEGPSNVDYAFRNFPQLSNALSNEDYSADFHLKWTHYLAHWMKHRKHPAFAEEREYRIWGHAYDGNDKGNSQHVVFVGNHDRRKFHLAPAPDDILGPLTHPLAIQKIMVGPKTDFAKVERFTRNVFQSYTHDRPDMCASKIPFK	not soluble
MGSDKIHHHHHHMSEPVIKSLLDTDMYKITMHAAVFTNFPDVTVTYKYTNRSSQLTFNKEAINWLKEQFSYLGNLRFTEEEIEYLKQEIPYLPSAYIKYISSSNYKLHPEEQISFTSEEIEGKPTHYKLKILVSGSWKDTILYEIPLLSLISEAYFKFVDIDWDYENQLEQAEKKAETLFDNGIRFSEFGTRRRRSLKAQDLIMQGIMKAVNGNPDRNKSLLLGTSNILFAKKYGVKPIGTVAHEWVMGVASISEDYLHANKNAMDCWINTFGAKNAGLALTDTFGTDDFLKSFRPPYSDAYVGVRQDSGDPVEYTKKISHHYHDVLKLPKFSKIICYSDSLNVEKAITYSHAAKENGMLATFGIGTNFTNDFRKKSEPQVKSEPLNIVIKLLEVNGNHAIKISDNLGKNMGDPATVKRVKEELGYTERSWSGDNEAHRWT	soluble
MGSDKIHHHHHHMSESHLYTYGIIDDNESLALNVDGVAGATRAYTVSYRSLSAVVSDIETTDPERTDAAVEAHNTVLQAVLEHDATRAVVPMSFGMAFKNARTLKGVLRGARRALRSTLTEIAGTVELGVKVLAPGDDTAVDTAAVRSDVTARLSALSVGETENDCFTDRLIINKSYLVEHDTRDAFDAAIDEIDAAHDDLTVRYTGPWPPYNFVDIHIGAEQAQQGGR	not soluble
